Measurements as given in US20260167959A1, “APTAZYME-BASED REGULATABLE GENE EXPRESSION SYSTEMS” (REJUVENATE BIO INC, priority 2022, published 2026).
Positions count from the first letter of the chain named.

B1: RA224 (nucleic acid)
DNA: GCGCGTCCTGGATTCGCGGAAACGCGTACATCCAGCTGACGAGTCCCAAATAGAGAATACCAGCATCGTCTTGATGCCCTTGGAAGTCTGACGAAACGCGC
modifications: expressed or natural sequence
B2: RA247 (nucleic acid)
DNA: GCGCGTCCTGGATTCGCGGAAACGCGTACATCCAGCTGAGGAATACCAGCATCGTCTTGATGCCCTTGGAAGTCCCGAGTCCCAAATAGGACGAAACGCGC
modifications: expressed or natural sequence
B3: RA243 (nucleic acid)
DNA: GCGCGTCCTGGATTCGCGGAAACGCGTACATCCAGCCCGGAATACCAGCATCGTCTTGATGCCCTTGGAAGTCCGGTGACGAGTCCCAAATAGGACGAAACGCGC
modifications: expressed or natural sequence
B4: RA023 (nucleic acid)
DNA: GCGCGTCCTGGATTCGCGGAAACGCGTGAGAATACCAGCATCGTCTTGATGCCCTTGGAAGTCTCACATCCAGCTGACGAGTCCCAAATAGGACGAAACGCGC
modifications: expressed or natural sequence
B5: RA228 (nucleic acid)
DNA: GCGCGTCCTGGATTCGCGGAAACGCGTACATCCAGCTGGGAATACCAGCATCGTCTTGATGCCCTTGGAAGTCCACGAGTCCCAAATAGGACGAAACGCGC
modifications: chemistry not given here
B6: RA231 (nucleic acid)
DNA: GCGAGAATACCAGCATCGTCTTGATGCCCTTGGAAGTCTCGCGTCCTGGATTCGCGGAAACGCGTACATCCAGCTGACGAGTCCCAAATAGGACGAAACGCGC
modifications: expressed or natural sequence
B7: RA233 (nucleic acid)
DNA: B6 DNA with G3A, A4G, G5T, A6G, A34C, T37C, C38A, T39C, C40T
modifications: expressed or natural sequence
B8: RA239 (nucleic acid)
DNA: GCGCGTCCTGGATTCGCGGAAACGCGTACATCCAGCTGACCCGGAATACCAGCATCGTCTTGATGCCCTTGGAAGTCCGGGAGTCCCAAATAGGACGAAACGCGC
modifications: expressed or natural sequence
B9: RA225 (nucleic acid)
DNA: GCGCGTCCTGGATTCGCGGAAACGCGTACATCCAGCTGACGAGTCCCAAATAAGAATACCAGCATCGTCTTGATGCCCTTGGAAGTCTGGACGAAACGCGC
modifications: expressed or natural sequence
B10: RA248 (nucleic acid)
DNA: GCGCGTCCTGGATTCGCGGAAACGCGTACATCCAGCTGACGAGTCCAGTGATACCAGCATCGTCTTGATGCCCTTGGCAGCACTCAAATAGGACGAAACGCGC
modifications: expressed or natural sequence
B11: RA236 (nucleic acid)
DNA: GCGCGTCCTGGATTCGCGGAAACGCGTACACCGGAATACCAGCATCGTCTTGATGCCCTTGGAAGTCCGGTCCAGCTGACGAGTCCCAAATAGGACGAAACGCGC
modifications: expressed or natural sequence
B12: RA238 (nucleic acid)
DNA: GCGCGTCCTGGATTAGAATACCAGCATCGTCTTGATGCCCTTGGAAGTCTCGCGGAAACGCGTACATCCAGCTGACGAGTCCCAAATAGGACGAAACGCGC
modifications: expressed or natural sequence
B13: RA244 (nucleic acid)
DNA: GCGCGTCCTGGATTCGCGGAAACGCGTCCGGAATACCAGCATCGTCTTGATGCCCTTGGAAGTCCGGACATCCAGCTGACGAGTCCCAAATAGGACGAAACGCGC
modifications: expressed or natural sequence
B14: RA226 (nucleic acid)
DNA: GCGCGTCCTGGATTCGCGGAAACGCGTACATCCAGCTGAAGTGATACCAGCATCGTCTTGATGCCCTTGGCAGCACTCGAGTCCCAAATAGGACGAAACGCGC
modifications: expressed or natural sequence
B15: RA229 (nucleic acid)
DNA: GCGCCGGAATACCAGCATCGTCTTGATGCCCTTGGAAGTCCGGCGTCCTGGATTCGCGGAAACGCGTACATCCAGCTGACGAGTCCCAAATAGGACGAAACGCGC
modifications: expressed or natural sequence
B16: RA240 (nucleic acid)
DNA: GCGCGTCCTGGATTCGCGGAAACGCGTACATCCAGCTGACGAGTCCCCGAGAATACCAGCATCGTCTTGATGCCCTTGGAAGTCTCGAAATAGGACGAAACGCGC
modifications: expressed or natural sequence
B17: RA234 (nucleic acid)
DNA: GCGCGTCCTGGATTCGCGGAAACGCGTACATCCAGCTGACGAGTCCCAAATAGGACGAAACCGGAATACCAGCATCGTCTTGATGCCCTTGGAAGTCCGGCGC
modifications: expressed or natural sequence
B18: RA245 (nucleic acid)
DNA: GGGAATACCAGCATCGTCTTGATGCCCTTGGAAGTCCCGCGTCCTGGATTCGCGGAAACGCGTACATCCAGCTGACGAGTCCCAAATAGGACGAAACGCGC
modifications: expressed or natural sequence
B19: RA024 (nucleic acid)
DNA: GCGCGTCCTGGATTCGCGGAAACGCGTACATCCAGCTGACGAGTCCCAAATAGGACAGTGATACCAGCATCGTCTTGATGCCCTTGGCAGCACTGAAACGCGC
modifications: expressed or natural sequence
B20: RA232 (nucleic acid)
DNA: GCCCGGAATACCAGCATCGTCTTGATGCCCTTGGAAGTCCGGGCGTCCTGGATTCGCGGAAACGCGTACATCCAGCTGACGAGTCCCAAATAGGACGAAACGCGC
modifications: expressed or natural sequence
B21: RA227 (nucleic acid)
DNA: GCGCGTCCGAGAATACCAGCATCGTCTTGATGCCCTTGGAAGTCTCGCTGGATTCGCGGAAACGCGTACATCCAGCTGACGAGTCCCAAATAGGACGAAACGCGC
modifications: expressed or natural sequence
B22: RA241 (nucleic acid)
DNA: GCGCGTCCTCCGGAATACCAGCATCGTCTTGATGCCCTTGGAAGTCCGGGGATTCGCGGAAACGCGTACATCCAGCTGACGAGTCCCAAATAGGACGAAACGCGC
modifications: expressed or natural sequence
B23: RA237 (nucleic acid)
DNA: GCGCGTCCTGGATTCGCGGAAACGCGTACATCCAGCTGACGGAGAATACCAGCATCGTCTTGATGCCCTTGGAAGTCTCAGTCCCAAATAGGACGAAACGCGC
modifications: expressed or natural sequence
B24: RA235 (nucleic acid)
DNA: GCGCGTCCTGGATTCGCGGAAACGCGTACATCCAGCTGACGAGTCCCAAATAGGAGAGAATACCAGCATCGTCTTGATGCCCTTGGAAGTCTCCGAAACGCGC
modifications: expressed or natural sequence
B25: RA242 (nucleic acid)
DNA: GCGCGTCCTGGATTCCGGAATACCAGCATCGTCTTGATGCCCTTGGAAGTCCGGCGCGGAAACGCGTACATCCAGCTGACGAGTCCCAAATAGGACGAAACGCGC
modifications: expressed or natural sequence
B26: RA246 (nucleic acid)
DNA: GCGCGTCCTGGATTCGCGGAGAATACCAGCATCGTCTTGATGCCCTTGGAAGTCTCGAAACGCGTACATCCAGCTGACGAGTCCCAAATAGGACGAAACGCGC
modifications: expressed or natural sequence
B27: RA230 (nucleic acid)
DNA: GCGCGTCCTGAGAATACCAGCATCGTCTTGATGCCCTTGGAAGTCTCGGATTCGCGGAAACGCGTACATCCAGCTGACGAGTCCCAAATAGGACGAAACGCGC
modifications: expressed or natural sequence
B28: RA022 (nucleic acid)
DNA: GCGCGTCCTGGATTCGCGGAAACGCGTACAAGTGATACCAGCATCGTCTTGATGCCCTTGGCAGCACTTCCAGCTGACGAGTCCCAAATAGGACGAAACGCGC
modifications: expressed or natural sequence

Test system: Renilla luciferase RNA
Assay: Barcoded aptazyme variant library screen: un-cleaved Renilla luciferase RNA by barcode read counts, HEK293-T cells
Format: cell-based
Conditions: un-cleaved Renilla luciferase RNA, HEK293-T cells cultured with 1 mM theophylline (ON) over without theophylline (OFF); barcode read counts, triplicate
Method in brief: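 Aptazyme variants (seven theophylline aptamers inserted after each T3H48 ribozyme nucleotide, 9-nt barcoded) cloned into the 3′ UTR of Renilla luciferase in psiCHECK-2; cells cultured ± theophylline, in triplicate. RNA and DNA barcodes amplified and sequenced; normalized read counts gave un-cleaved RNA fraction and ON/OFF fold-change.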

Molecule	Fold change in RNA expression between the ON state and the OFF state [fold]
B1	1.1
B2	1.1
B3	1.1
B4	2.6
B5	1.1
B6	1.1
B7	1.1
B8	1.1
B9	1.1
B10	1.1
B11	1.1
B12	1.1
B13	1.1
B14	1.1
B15	1.1
B16	1.1
B17	1.1
B18	1.1
B19	2.6
B20	1.1
B21	1.1
B22	1.1
B23	1.1
B24	1.1
B25	1.1
B26	1.1
B27	1.1
B28	2.6
